The values below come from US20200165313A1, “EGF(A) ANALOGUES, PREPARATION, FORMULATIONS AND USES THEREOF” (Novo Nordisk A/S, priority 2017, published 2020).

For this experiment, the target named is hPCSK9 (Sino Biologicals, China) (human) (UniProt Q8NBP7). In words: cell-based or functional assay.

With Alirocumab (antibody), the hepatic LDL-R expression, Percentage of baseline (%), mouse hPCSK9 challenge, inhibitor 22 nmol/kg amounted to 157%.
